From US12692310B2, “ASIC1 channel antagonist antibody” (ShanghaiTech University, priority 2019, dated 2026)

T1: hASIC1a-eYFP on CHO-K1 cells (Homo sapiens, UniProt P78348)
T1 construct: overexpress the full-length hASIC1a (1-528 amino acids) protein fused with eYFP; expressed in transfected cells; host or cells: CHO-K1, transient
T1 sequence (P78348 1-528): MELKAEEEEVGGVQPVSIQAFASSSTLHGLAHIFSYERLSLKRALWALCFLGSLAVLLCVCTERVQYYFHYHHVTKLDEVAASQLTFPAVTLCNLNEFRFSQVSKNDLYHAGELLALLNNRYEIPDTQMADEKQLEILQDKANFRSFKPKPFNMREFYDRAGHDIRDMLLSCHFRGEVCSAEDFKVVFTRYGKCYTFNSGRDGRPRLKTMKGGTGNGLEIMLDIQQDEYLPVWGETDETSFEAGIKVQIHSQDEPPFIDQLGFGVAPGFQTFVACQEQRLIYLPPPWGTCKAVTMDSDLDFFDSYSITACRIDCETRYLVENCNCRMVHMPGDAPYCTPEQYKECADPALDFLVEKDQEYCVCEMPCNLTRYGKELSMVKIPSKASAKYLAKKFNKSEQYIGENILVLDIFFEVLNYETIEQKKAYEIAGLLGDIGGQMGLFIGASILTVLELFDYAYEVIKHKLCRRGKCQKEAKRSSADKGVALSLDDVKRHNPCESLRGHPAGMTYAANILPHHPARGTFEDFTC

T2: hASIC1a-eYFP (human, UniProt P78348 1-528)
T2 construct: whole, on cells; On CHO-K1 cells, stably (6H7) or transiently transfected; also called full-length hASIC1a (1-528 amino acids) fused with eYFP; CHO-K1/hASIC1a cells; not shown: C-terminal eYFP fusion
T2 sequence (looked up): T1 sequence (P78348 1-528)

B1: ASC06 (scFv, V domains shown)
VH: QVQLQQSGGGLVQPGGSLRLSCAASGFTFSSYAMSWVRQAPGKGLEWVSAISGSGGSTYYADSVKGRFTISRDNSKNTLYLQMNSLRAEDTAVYYCAKDSFYGYSKGDWGQGTLVTVSS
VL: QSALTQPASVSGSPGQSITISCTGTSSDVGAYNYVSWYQQQPGKAPKLMIYGVSNRPSGVSNRFSGSKSGNAASLTISGLQAEDEADYYCSSYTSSSTYVFGTGTKLTVLG
B2: ASC06: anti-ASIC1a scFv antibody, VH SEQ ID NO: 52 and VL SEQ ID NO: 57 (antibody, V domains shown)
VH: B1 VH
VL: B1 VL
modifications: scFv linker; Amino acid sequence of ASC06 VH; Amino acid sequence of ASC06 VL
B3: ASC04: anti-ASIC1a scFv antibody, VH SEQ ID NO: 32 and VL SEQ ID NO: 37 (antibody, V domains shown)
VH: QVQLVQSGAEVKKPGSSVKVSCKASGGTFSTYAINWVRQAPGQGLEWMGWMNPNSGNTGYAQKFQGRVTMTRNTSISTAYMELSSLRSEDTAVYYCARYSYGMDVWGQGTTVTVSS
VL: QAVLTQPSSLSASPGASVSLTCTLRSGINVGAYRIYWYQQKPGSPPQFLLRYKSDSDKQQGSGVPSRFSGSRDASANAGILLISGLRSEDEADYYCAIWHSSAWVFGGGTKLTVLG
modifications: scFv linker; Amino acid sequence of ASC04 VH; Amino acid sequence of ASC04 VL
B4: ASC02: anti-ASIC1a scFv antibody, VH SEQ ID NO: 12 and VL SEQ ID NO: 17 (antibody, V domains shown)
VH: QVQLVQSGAEVKKPGASMKVSCTTSGYTVTGYYIHWLRQAPGQGFEWMGWINPNLGVTNYAQKFQGRVSMTRDPSIKTAYLELSGLRSDDTAMYYCARASTGGIFYDYWGQGTLVTVSS
VL: NFMLTQPHSMSESPGKTVTISCTRSSGNIASNYVQWYQQRPGSSPTTVIYDDNQRPSGVPDRFSGSIDSISNSASLTISGLKTEDEADYYCQSYDSSSVIFGGGTKLTVLG
modifications: scFv linker; Amino acid sequence of ASC02 VH; Amino acid sequence of ASC02 VL
B5: ASC03: anti-ASIC1a scFv antibody, VH SEQ ID NO: 22 and VL SEQ ID NO: 27 (antibody, V domains shown)
VH: QVQLVESGAEVKKPGSSVKVSCKASGGNFRKYSISWVRQAPGQGLEWMGWISAYNGNTNYAQKLQGRVTMTTDTSTSTAYMELRSLRSDDTAVYYCARDFDPYYDAFDIWGQGTTVTVSS
VL: QSALTQPASVSGSPGQSITISCTGTSSDVGAYNYVSWYQQHPGKAPKLMIYDVSNRLSGVSNRFSGSKSGNRASLTISGLQAEDEADYYCSSYRSGNSLAFGGGTKLTVLG
modifications: scFv linker; Amino acid sequence of ASC03 VH; Amino acid sequence of ASC03 VL
B6: ASC01 (scFv, V domains shown)
VH: QVQLVETGPRLVKPSQTLSLTCTVSGGSINSGGYYWGWIRQHSGKGLEWIGYIYPRGSSYYNPSLRSRVTISADTSRNNFSLKLTSVTAADTAVYYCARVGYTGAFDIWGQGTLVTVSS
VL: QAVLTQPSSVSAAPGQKVTISCSGGNSNIGNNYVSWYQQLPGTAPKLLIYDNNKRPSGIPDRFSGSKSGTAATLGITGLQTGDEADYYCGTWDSSLSAGVFGEGTQLTVLG
notes: also called ASC01 scFv; ASC01 (scFv format)
B7: ASC01: anti-ASIC1a scFv antibody, VH SEQ ID NO: 2 and VL SEQ ID NO: 7 (antibody, V domains shown)
VH: B6 VH
VL: B6 VL
modifications: scFv linker; Amino acid sequence of ASC01 VH; Amino acid sequence of ASC01 VL
B8: ASC05 (scFv, V domains shown)
VH: QVQLVESGAEVKKPGASVRVSCKASGYSFTNYYMHWVRQAPGQGLEWMGIISPSGRSTSFAQKFQGRVTMTRDTSTSTVYMHLSSLRSDDTAVYYCARGAWSTDAFDIWGQGTTVTVSS
VL: QSALTQPASVSGSPGQSITISCTGTSSDVGSYNLVSWYQQHPGKAPKLMIYEGSKRPSGVSNRFSGSKSGNTASLTISGLQAEDEAEYHCSSFTGKGYVFGTGTKLTVLG
notes: also called ASC05 scFv; ASC05 (scFv format)
B9: ASC05: anti-ASIC1a scFv antibody, VH SEQ ID NO: 42 and VL SEQ ID NO: 47 (antibody, V domains shown)
VH: B8 VH
VL: QSALTQPASVSGSPGQSITISCTGTSSDVGSYNLVSWYQQHPGKAPKLMIYEGSKRPSGVSNRFSGSKSGNTASLTISGLQAEDEAEYHCSSFTGKGYVFGTGTKLTVLGGLG
modifications: scFv linker; Amino acid sequence of ASC05 VH; Amino acid sequence of ASC05 VL

Experiments:
[1] = target: truncated hASIC1a (amino acids 13-464) (human) (UniProt P78348); experiment: Octet, scFv format, ΔhASIC1a nanodiscs
[2] = target: truncated hASIC1a (amino acids 13-464) (human) (UniProt P78348); experiment: Octet, scFv format at 500 nM, ΔhASIC1a nanodiscs
ΔhASIC1a-nanodiscs = target: T3, ΔhASIC1a-nanodiscs (Homo sapiens, UniProt P78348); experiment: Binding affinities of scFv antibodies to ΔhASIC1a-nanodiscs, Octet system; conditions: scFv format; for Response: Conc. 500 nM; for Response / Kd: Octet system; for affinities for ΔhASIC1a nanodiscs, comparison in words: among ASC01-ASC06
T3 construct: A truncated ASIC1a (amino acids 13-464; ΔhASIC1a) was overexpressed and purified; made in house; host or cells: HEK293F (BacMam baculovirus)
T3 sequence (P02647 68-267 partner limits assumed, one chain of several): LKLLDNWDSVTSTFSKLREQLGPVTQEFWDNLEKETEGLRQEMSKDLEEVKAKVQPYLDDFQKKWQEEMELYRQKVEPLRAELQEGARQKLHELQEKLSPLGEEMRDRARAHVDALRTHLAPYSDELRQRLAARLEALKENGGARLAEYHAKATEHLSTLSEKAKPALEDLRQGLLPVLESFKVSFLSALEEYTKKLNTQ
Source text: Nanodisc Assembly of hASIC1a Channel. To mimic the lipid bilayer environment of cellular membranes, the purified ΔhASIC1a protein was incorporated into a lipid nanodisc by mixing the ΔhASIC1a protein with the membrane scaffold protein (MSP). and 1,2-dimyristoyl-sn-glycero-3-phosphocholine (DMPC) at a molar ratio of 3:2:65. The associated detergents were removed by gentle agitation with the Bio-Beads SM2 [Bio-Beads:DDM=10:1 (wt/wt); Bio-Rad]overnight. The ΔhASIC1a-embedded nanodiscs were separated from the unassembled nanodisc using the Flag peptide-specific magnetic beads. D'Antona et al., Biochemistry 53:127-134 (2014). The desired ΔhASIC1a nanodisc assembly was further purified and collected using a Superose 6 column (GE Healthcare) in a buffer containing 20 mM Tris, pH 7.5, and 150 mM NaCl. The empty nanodiscs were packaged without the addition of ΔhASIC1a. The composition of the assembled ΔhASIC1a nanodiscs was analyzed by SDS-PAGE, EM, and dynamic light scattering (FIGS. 9A-C, 12A, 12B)
The binding ability of ASC01-ASC06 antibodies in scFv format to ΔhASIC1a-nanodiscs, in comparison to the empty nanodiscs, was evaluated using ELISA. […] Affinities of the antibodies were then measured.

[3] = target: T1, hASIC1a-eYFP on CHO-K1 cells; experiment: Immunocytochemistry on CHO-K1/hASIC1a cells; assay type: cell-based; conditions: ICC, confocal; for localization to plasma membranes of cells expressing hASIC1a-eYFP: compared to ASC01 and ASC05
Experimental: Cell Membrane Colocalization Studies Using Immunocytochemistry (ICC). Cells (CHO-K1) were seeded onto the poly-D-lysine-coated glass bottom 24-well plates at a concentration of 2×10^5 cells per mL. After 12 h of cultivation, the CHO-K1 cells were transfected with ASIC plasmids by Lipofectin 3000 reagent. Twenty-four hours after transfection, the cells were fixed in 4% paraformaldehyde and incubated for 30 min in a blocking solution (5% goat serum in PBS). The resulting cells were incubated with […] ASC06-IgG1 at 4° C. overnight followed by three PBS washes for 5 min each and incubation with the Alexa555-conjugated goat anti-human secondary antibody (Life Technology). After three additional PBS washes for 5 min each, the nuclei of the cells were stained with DAPI (#10236276001; Roche). The ICC analysis was performed on a laser scanning confocal microscopy (ZEISS LSM710) with a 63×N.A. 1.4 objective at 25° C. Images were collected on a 1,024×1,024-pixel EM-CCD camera. Data acquisition and analyses were performed with the ZEN 2012 professional software.
To understand whether ASC01-ASC06 specifically bind to the ASIC1a protein expressed on cell surface, the binding of the antibodies to CHO-K1/hASIC1a cells was evaluated using immunocytochemistry. The CHO-K1/hASIC1a cells overexpress the full-length hASIC1a (1-528 amino acids) protein fused with eYFP. […] It is likely that ASC01-ASC05 recognize specific ASIC1a confirmations or subpopulations.
The ASC06 antibody was converted into a full length IgG1 form (ASC06-IgG1) for further study. […] The binding of ASC06-IgG1 to CHO-K1/hASIC1a cells was evaluated using immunocytochemistry, in comparison with the ASC06 (scFv format) antibody.

hASIC1a-eYFP = target: T2, hASIC1a-eYFP; experiment: immunocytochemistry, confocal microscopy, CHO-K1 cells expressing hASIC1a-eYFP

Molecule | Kd [1] [nM] | Response [2] | Response (ΔhASIC1a-nanodiscs) | Kd (ΔhASIC1a-nanodiscs) [nM] | affinities for ΔhASIC1a nanodiscs, comparison in words (ΔhASIC1a-nanodiscs) | membrane co-localization with hASIC1a [3] | localization to plasma membranes of cells expressing hASIC1a-eYFP [3] | binding result (hASIC1a-eYFP)
B1 | 21.7 | 0.571 |  |  |  |  |  | 
B2 |  |  | 0.5712 | 21.7 | strongest affinities | more co-localization with hASIC1a-eYFP | localized more to the plasma membranes | 
B3 |  |  | 0.995 | 20.8 | strongest affinities |  | localized more to the plasma membranes | 
B4 |  |  | 0.2888 | 262 |  |  | localized more to the plasma membranes | 
B5 |  |  | 0.2693 | 259 |  |  | localized more to the plasma membranes | 
B6 | 45.1 | 0.431 |  |  |  |  |  | binds
B7 |  |  | 0.431 | 45.1 |  |  |  | 
B8 | 137 | 0.502 |  |  |  |  |  | binds
B9 |  |  | 0.5016 | 137 |  |  |  | 
